Here are results for four substances from paper PMC3867403.

The target in test [1] is ALK5-Flag (transforming growth factor-β receptor 1, TGFBR1) (UniProt P36897).
Test [2] has the same target. This is another data set of the same source.

Chain of UniProt P36897 (P36897 34-503): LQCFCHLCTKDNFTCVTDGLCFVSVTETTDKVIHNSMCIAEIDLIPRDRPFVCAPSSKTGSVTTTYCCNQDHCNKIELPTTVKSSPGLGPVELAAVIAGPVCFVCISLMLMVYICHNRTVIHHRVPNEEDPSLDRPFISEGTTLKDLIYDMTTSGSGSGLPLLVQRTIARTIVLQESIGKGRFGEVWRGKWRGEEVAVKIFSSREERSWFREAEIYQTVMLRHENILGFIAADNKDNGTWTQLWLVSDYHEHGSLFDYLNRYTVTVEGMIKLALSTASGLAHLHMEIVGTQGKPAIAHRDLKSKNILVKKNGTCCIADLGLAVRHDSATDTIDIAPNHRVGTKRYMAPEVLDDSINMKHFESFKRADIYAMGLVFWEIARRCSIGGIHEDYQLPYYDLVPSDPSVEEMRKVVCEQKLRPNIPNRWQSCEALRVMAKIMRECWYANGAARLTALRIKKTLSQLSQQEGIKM

On to “LumC13 peptide (the last C-terminal 13 amino acids of Lum)”, for which, in test [1], the rate constant 1 of healing of scratched HTCE cells, LumC13 peptide was 4.62 Δ%/h and the rate constant 2 of healing of scratched HTCE cells, LumC13 peptide was 13.5 Δ%/h.

Turning to “GST-LumC50 (GST fusion with the C-terminal 50 amino acids of Lum) (domain or fragment)”, in test [1], the rate constant 1 of healing of scratched HTCE cells, GST-LumC50 in basic medium is 5.35 Δ%/h and the rate constant 2 of healing of scratched HTCE cells, GST-LumC50 in basic medium is 14 Δ%/h.

As to “LumC13C-A peptide (LumC13 with the cysteine substituted with alanine)”, in test [1], the rate constant 1 of healing of scratched HTCE cells, LumC13C-A peptide was 5.1 Δ%/h and the rate constant 2 of healing of scratched HTCE cells, LumC13C-A peptide is 13.9 Δ%/h.

As to “GST-Lum (recombinant GST-lumican fusion protein) (from UniProt P51885 19-338) (natural protein)”, in test [2], the rate constant 1 of healing of scratched HTCE cells, GST-Lum with the ALK5 inhibitor SB431542 (10 µM); monophasic, no rate constant 2 was 1.89 Δ%/h. Moreover, in test [1], the rate constant 1 of healing of scratched HTCE cells, GST-Lum in basic medium was 5.37 Δ%/h and the rate constant 2 of healing of scratched HTCE cells, GST-Lum in basic medium was 14.8 Δ%/h.
